Results published in patent CN107987163A (HANGZHOU SHANGJIAN BIOTECHNOLOGY CO LTD, dated 2018).

Assays:
[1] = target: BSA (BOVOGEN) (UniProt P02769 25-607); assay: ELISA, protein coated at 1μg/ml, goat anti-human IgG-HRP detection
[2] = target: T1, A549细胞表面AXL (AXL on the surface of A549 cells) (UniProt P30530 26-894, limits assumed); assay: flow cytometry on A549 cells, 9A diluted to 20μg/ml, PE mouse anti-human IgG detection
T1 construct: whole, on cells; also called 细胞表面抗原
T1 sequence (looked up): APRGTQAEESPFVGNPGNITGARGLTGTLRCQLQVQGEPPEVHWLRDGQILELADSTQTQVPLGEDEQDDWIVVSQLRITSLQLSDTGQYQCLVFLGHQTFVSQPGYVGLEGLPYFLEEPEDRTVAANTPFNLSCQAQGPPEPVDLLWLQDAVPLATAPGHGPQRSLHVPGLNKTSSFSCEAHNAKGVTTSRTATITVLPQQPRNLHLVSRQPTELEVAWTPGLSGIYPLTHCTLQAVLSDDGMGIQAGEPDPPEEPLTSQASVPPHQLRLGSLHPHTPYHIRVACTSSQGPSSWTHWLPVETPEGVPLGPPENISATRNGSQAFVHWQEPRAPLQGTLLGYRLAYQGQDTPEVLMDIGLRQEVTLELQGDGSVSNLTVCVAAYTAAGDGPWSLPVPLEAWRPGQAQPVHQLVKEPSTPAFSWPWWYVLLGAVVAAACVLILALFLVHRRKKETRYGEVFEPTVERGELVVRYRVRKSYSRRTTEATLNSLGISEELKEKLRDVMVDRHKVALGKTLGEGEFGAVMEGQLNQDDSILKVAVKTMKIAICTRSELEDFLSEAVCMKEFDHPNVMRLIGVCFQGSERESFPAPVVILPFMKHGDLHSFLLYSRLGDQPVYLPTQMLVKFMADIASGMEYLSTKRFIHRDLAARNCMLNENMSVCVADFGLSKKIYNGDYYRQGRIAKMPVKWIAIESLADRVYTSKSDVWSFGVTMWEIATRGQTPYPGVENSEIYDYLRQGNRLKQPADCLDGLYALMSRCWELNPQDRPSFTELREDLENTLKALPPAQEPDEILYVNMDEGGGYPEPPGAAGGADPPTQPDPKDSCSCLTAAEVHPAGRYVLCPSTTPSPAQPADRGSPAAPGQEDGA

[3] = target: T2, AXL-Fc (人AXL蛋白胞外段-人IgG1Fc段融合蛋白) (human, UniProt P30530 26-451); assay: ELISA, AXL-Fc coated at 1μg/ml, antibody titrated, goat anti-human IgG (Fab')2-HRP detection
T2 construct: extracellular domain; Expressed in CHO-K1 cells; also called 靶抗原AXL-Fc; 抗原AXL-Fc
T2 sequence (looked up): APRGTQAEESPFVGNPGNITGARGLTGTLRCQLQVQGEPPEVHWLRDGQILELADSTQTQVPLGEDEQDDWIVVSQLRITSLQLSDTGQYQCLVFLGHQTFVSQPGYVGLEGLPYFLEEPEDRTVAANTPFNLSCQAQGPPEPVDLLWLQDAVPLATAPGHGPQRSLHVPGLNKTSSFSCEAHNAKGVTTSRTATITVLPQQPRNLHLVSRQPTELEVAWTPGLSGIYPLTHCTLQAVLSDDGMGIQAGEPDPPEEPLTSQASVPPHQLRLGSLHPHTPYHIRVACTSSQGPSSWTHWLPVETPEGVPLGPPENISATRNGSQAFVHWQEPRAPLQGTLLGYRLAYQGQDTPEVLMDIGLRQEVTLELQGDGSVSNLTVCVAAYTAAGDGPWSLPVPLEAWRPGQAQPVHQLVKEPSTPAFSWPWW

Sequence of BSA (BOVOGEN) (P02769 25-607 limits assumed): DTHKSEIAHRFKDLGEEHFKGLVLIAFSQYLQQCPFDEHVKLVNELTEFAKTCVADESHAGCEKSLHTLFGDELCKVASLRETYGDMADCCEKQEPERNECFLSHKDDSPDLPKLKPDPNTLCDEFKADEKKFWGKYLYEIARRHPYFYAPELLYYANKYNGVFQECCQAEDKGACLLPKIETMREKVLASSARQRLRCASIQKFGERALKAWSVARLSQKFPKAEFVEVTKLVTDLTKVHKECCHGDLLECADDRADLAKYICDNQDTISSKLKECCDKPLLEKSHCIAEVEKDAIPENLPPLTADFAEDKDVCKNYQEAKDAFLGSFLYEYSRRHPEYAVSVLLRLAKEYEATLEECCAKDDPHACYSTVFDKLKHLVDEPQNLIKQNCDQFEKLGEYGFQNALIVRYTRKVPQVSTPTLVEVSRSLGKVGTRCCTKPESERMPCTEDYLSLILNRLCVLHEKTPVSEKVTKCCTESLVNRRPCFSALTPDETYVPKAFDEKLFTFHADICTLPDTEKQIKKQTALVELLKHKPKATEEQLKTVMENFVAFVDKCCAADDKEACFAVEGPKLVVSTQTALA

binding result [1]: no binding
binding result [2]: binds
binding result [3]: binds
B1: 9A抗体 (full antibody 9A, anti-AXL monoclonal antibody) (antibody, human IgG1, kappa, V domains shown)
VH: QVQLVQSGAEVKKPGSSVKVSCKASGGTFSSYAISWVRQAPGQGLEWMGGIIPIFGTANYAQKFQGRATITADESTSTAYMELSSLRSEDTAVYYCARAYYDFWSGYEPWGQGTLVTVSS
VL: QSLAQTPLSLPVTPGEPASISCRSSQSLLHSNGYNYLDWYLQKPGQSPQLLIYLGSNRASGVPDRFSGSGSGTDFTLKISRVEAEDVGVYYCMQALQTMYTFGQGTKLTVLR
notes: also called 单克隆抗体9A; 全抗体
